Measurements: patent US20120134928A1

Target: Est1-(myc)13 (Saccharomyces cerevisiae (from context; not stated for this protein)) (UniProt P17214)
Experiment: co-immunoprecipitation with anti-Rat1 peptide antibodies from extracts of yeast over-expressing Est1-(myc)13, probed for myc

Sequence of UniProt P17214 (P17214 whole entry): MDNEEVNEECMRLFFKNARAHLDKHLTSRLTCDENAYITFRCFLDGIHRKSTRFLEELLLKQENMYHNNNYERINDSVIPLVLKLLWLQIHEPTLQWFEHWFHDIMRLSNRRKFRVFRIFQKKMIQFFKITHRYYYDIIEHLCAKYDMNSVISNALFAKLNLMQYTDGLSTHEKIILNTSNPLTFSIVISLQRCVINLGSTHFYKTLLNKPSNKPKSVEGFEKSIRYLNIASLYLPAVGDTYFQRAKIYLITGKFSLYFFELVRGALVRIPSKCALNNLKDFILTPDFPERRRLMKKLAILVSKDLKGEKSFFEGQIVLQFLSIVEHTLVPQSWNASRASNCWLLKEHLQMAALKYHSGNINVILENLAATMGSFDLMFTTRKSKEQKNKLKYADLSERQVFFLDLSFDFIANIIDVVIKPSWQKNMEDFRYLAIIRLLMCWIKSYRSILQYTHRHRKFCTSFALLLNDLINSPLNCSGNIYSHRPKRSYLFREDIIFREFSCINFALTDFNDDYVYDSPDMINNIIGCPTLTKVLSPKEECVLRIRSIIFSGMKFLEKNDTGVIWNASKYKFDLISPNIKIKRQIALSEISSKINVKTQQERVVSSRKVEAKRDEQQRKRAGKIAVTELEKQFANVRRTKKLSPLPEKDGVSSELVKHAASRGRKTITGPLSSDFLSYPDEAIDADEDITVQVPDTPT

co-immunoprecipitation efficiency: 5%
Substance: S. cerevisiae Rat1 protein (from UniProt Q02792 2-1006) (enzyme)
